Ends that are not written are not given here. dPEG24 = 24 PEG moieties, at the C-terminus
Target: T1, Human neutrophil myeloperoxidase (MPO), purified (human, UniProt P05164 165-745, limits assumed)
T1 sequence (looked up): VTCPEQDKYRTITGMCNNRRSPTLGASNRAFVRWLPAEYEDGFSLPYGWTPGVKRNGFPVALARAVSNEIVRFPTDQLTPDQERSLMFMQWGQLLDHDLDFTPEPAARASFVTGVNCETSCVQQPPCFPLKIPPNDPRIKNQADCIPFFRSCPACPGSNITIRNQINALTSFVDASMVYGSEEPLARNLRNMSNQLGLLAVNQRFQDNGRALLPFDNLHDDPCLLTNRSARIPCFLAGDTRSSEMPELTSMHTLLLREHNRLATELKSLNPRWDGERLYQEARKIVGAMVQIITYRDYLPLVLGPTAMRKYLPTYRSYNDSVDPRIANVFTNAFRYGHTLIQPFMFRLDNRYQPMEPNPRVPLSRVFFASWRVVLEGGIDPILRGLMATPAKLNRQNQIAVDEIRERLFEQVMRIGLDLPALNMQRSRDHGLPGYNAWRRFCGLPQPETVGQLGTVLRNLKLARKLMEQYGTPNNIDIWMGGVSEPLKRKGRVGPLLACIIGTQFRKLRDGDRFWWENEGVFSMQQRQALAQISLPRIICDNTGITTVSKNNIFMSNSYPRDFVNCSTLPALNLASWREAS
Assay: cell-based or functional assay

With IALILEPICCQERAA-dPEG24 (cysteine pairing not given here) [PA-dPEG24 (IALILEPICCQERAA-dPEG24)] the “peroxidase activity by TMB in peritoneal wash supernatant (rat; 0.1 mg purified MPO IP, then 20 mg PA-dPEG24 IP, 2 hours)” value was 5 fold decrease.
